Reference: PMC9482650, “Quantitative fragmentomics allow affinity mapping of interactomes” (Nature Communications, 2022)

Assays:
Experiment in all cases: holdup assay
Set-up in all cases: key: below the threshold = too weak to quantify, mostly under pKd 3.1 to 4
Settings in all cases: plain residues with an end cap or a label only (N-terminal biotin on a linker: ado-ado)
GIPC2, Q8TF65 = target: GIPC2, Q8TF65
FRMPD1, Q5SYB0 = target: T1, FRMPD1, Q5SYB0
T1 sequence (Q5SYB0 52-145, limits assumed, looked up): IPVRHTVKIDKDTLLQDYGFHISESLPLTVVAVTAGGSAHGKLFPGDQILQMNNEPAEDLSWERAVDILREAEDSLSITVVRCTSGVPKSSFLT

LNX1_1, Q8TBB1 = target: LNX1_1, Q8TBB1
Chain of LNX1_1, Q8TBB1 (Q8TBB1 261-371): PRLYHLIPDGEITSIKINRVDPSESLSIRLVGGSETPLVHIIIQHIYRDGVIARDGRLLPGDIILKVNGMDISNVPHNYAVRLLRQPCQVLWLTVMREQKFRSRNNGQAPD

NHERF4_4, Q86UT5 = target: NHERF4_4, Q86UT5
Chain of NHERF4_4, Q86UT5 (Q86UT5 464-550): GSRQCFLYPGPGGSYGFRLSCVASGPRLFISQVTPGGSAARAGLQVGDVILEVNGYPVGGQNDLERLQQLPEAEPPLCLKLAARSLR

NHERF2_2, Q15599 = target: NHERF2_2, Q15599
Chain of NHERF2_2, Q15599 (Q15599 142-238): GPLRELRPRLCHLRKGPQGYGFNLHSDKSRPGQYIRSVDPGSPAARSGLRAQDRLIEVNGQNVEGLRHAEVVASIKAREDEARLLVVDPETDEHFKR

TX1BP3, O14907 = target: T2, TX1BP3, O14907
T2 sequence (O14907 10-122, limits assumed, looked up): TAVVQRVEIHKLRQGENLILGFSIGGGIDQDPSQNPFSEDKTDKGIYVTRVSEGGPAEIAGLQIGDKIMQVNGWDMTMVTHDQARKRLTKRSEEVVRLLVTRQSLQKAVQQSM

DLG5_1, Q8TDM6 = target: DLG5_1, Q8TDM6
Chain of DLG5_1, Q8TDM6 (Q8TDM6 617-713): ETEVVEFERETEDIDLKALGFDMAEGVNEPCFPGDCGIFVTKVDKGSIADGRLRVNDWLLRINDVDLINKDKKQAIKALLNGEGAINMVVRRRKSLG

PTPN3, P26045 = target: PTPN3, P26045
Chain of PTPN3, P26045 (P26045 505-587): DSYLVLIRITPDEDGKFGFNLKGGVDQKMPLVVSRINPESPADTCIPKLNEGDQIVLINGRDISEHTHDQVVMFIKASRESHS

PCLO, Q9Y6V0 = target: T3, PCLO, Q9Y6V0
T3 sequence (Q9Y6V0 4491-4600, limits assumed, looked up): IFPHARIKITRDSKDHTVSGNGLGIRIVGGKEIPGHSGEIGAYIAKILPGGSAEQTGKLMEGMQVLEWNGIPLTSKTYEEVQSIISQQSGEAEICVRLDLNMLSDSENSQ

DLG1_1, Q12959 = target: DLG1_1, Q12959
SHANK1, Q9Y566 = target: T4, SHANK1, Q9Y566
T4 sequence (Q9Y566 658-767, limits assumed, looked up): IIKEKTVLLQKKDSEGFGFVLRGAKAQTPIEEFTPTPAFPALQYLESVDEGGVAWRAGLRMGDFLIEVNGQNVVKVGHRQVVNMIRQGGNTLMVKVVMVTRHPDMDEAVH

PTPN13_1, Q12923 = target: T5, PTPN13_1, Q12923
T5 sequence (Q12923 1088-1188, limits assumed, looked up): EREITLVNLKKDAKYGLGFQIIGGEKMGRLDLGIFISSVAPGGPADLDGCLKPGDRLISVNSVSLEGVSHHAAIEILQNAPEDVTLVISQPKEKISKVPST

GRID2IP_1, A4D2P6 = target: GRID2IP_1, A4D2P6
Chain of GRID2IP_1, A4D2P6 (A4D2P6 1-87): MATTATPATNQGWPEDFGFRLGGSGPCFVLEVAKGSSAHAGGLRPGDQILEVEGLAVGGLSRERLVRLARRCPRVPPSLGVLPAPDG

GRASP, Q7Z6J2 = target: GRASP, Q7Z6J2
Chain of GRASP, Q7Z6J2 (Q7Z6J2 96-193): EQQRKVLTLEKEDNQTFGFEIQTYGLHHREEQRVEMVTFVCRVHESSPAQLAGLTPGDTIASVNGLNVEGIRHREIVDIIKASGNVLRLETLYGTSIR

Inadl_5, Q8NI35 = target: Inadl_5, Q8NI35
Chain of Inadl_5, Q8NI35 (Q8NI35 673-780): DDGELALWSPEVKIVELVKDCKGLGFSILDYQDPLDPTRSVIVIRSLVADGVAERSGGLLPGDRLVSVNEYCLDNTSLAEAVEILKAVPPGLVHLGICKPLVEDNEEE

Inadl_1, Q8NI35 = target: Inadl_1, Q8NI35
Chain of Inadl_1, Q8NI35 (Q8NI35 113-229): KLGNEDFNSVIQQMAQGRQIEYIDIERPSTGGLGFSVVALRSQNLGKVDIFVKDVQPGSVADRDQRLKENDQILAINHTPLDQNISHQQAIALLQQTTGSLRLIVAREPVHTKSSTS

MAGI2_3, Q86UL8 = target: MAGI2_3, Q86UL8
Chain of MAGI2_3, Q86UL8 (Q86UL8 600-682): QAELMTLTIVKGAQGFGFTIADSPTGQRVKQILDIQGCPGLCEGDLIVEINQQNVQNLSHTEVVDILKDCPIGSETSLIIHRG

LIN7A, O14910 = target: T6, LIN7A, O14910
T6 sequence (O14910 103-200, limits assumed, looked up): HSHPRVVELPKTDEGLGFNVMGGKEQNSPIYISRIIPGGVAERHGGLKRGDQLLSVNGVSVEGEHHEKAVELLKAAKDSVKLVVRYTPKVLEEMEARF

MAGI2_6, Q86UL8 = target: MAGI2_6, Q86UL8
Chain of MAGI2_6, Q86UL8 (Q86UL8 1141-1229): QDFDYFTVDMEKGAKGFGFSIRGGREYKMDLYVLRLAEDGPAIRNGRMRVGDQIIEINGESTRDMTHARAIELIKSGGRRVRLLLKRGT

MAGI2_2, Q86UL8 = target: MAGI2_2, Q86UL8
Chain of MAGI2_2, Q86UL8 (Q86UL8 410-522): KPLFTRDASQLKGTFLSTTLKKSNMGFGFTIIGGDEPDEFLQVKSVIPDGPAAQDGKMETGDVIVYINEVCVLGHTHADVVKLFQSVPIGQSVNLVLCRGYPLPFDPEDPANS

GORASP2, Q9H8Y8 = target: GORASP2, Q9H8Y8
PDZRN4_1, Q6ZMN7 = target: PDZRN4_1, Q6ZMN7
Chain of PDZRN4_1, Q6ZMN7 (Q6ZMN7 213-318): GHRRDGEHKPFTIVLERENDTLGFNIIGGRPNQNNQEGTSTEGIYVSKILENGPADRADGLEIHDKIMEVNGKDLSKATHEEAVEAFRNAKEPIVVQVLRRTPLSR

ARHGEF11, O15085 = target: T7, ARHGEF11, O15085
T7 sequence (O15085 42-136, limits assumed, looked up): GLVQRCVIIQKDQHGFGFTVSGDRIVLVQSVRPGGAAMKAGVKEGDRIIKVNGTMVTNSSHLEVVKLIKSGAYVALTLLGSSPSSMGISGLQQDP

Inadl_9, Q8NI35 = target: Inadl_9, Q8NI35
Chain of Inadl_9, Q8NI35 (Q8NI35 1530-1615): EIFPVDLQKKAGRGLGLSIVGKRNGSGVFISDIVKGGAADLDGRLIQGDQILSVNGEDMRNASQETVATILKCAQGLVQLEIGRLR

Inadl_10, Q8NI35 = target: Inadl_10, Q8NI35
Chain of Inadl_10, Q8NI35 (Q8NI35 1673-1763): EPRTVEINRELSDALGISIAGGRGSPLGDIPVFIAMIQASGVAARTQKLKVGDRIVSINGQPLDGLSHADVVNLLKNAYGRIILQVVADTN

MPDZ_12, O75970 = target: T8, MPDZ_12, O75970
T8 sequence (O75970 1857-1958, limits assumed, looked up): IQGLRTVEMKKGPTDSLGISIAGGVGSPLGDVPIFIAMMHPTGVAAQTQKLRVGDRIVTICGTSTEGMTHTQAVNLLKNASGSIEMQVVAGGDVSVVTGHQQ

DLG2_3, Q15700 = target: DLG2_3, Q15700
DLG3_2, Q92796 = target: T9, DLG3_2, Q92796
T9 sequence (Q92796 221-321, limits assumed, looked up): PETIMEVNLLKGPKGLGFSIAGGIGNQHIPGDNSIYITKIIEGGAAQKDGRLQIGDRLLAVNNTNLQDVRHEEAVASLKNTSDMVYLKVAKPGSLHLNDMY

MAST2, Q6P0Q8 = target: MAST2, Q6P0Q8
Chain of MAST2, Q6P0Q8 (Q6P0Q8 1099-1202): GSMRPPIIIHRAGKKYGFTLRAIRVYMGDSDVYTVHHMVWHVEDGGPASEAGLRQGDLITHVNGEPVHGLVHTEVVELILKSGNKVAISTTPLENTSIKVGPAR

Chain of GIPC2, Q8TF65 (Q8TF65 112-203): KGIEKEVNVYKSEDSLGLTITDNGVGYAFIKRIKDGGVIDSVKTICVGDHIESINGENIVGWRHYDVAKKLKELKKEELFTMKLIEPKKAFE

## TACCHSETVV [TGFA, P01135]
GIPC2, Q8TF65
  pKd: below the threshold
FRMPD1, Q5SYB0
  pKd: below the threshold
LNX1_1, Q8TBB1
  pKd: 4.12
NHERF4_4, Q86UT5
  pKd: below the threshold
NHERF2_2, Q15599
  pKd: below the threshold
TX1BP3, O14907
  pKd: 3.82
DLG5_1, Q8TDM6
  pKd: below the threshold
PTPN3, P26045
  pKd: 4.41
PCLO, Q9Y6V0
  pKd: below the threshold
DLG1_1, Q12959
  pKd: 4.56
SHANK1, Q9Y566
  pKd: below the threshold
PTPN13_1, Q12923
  pKd: below the threshold
GRID2IP_1, A4D2P6
  pKd: below the threshold
GRASP, Q7Z6J2
  pKd: 3.5
Inadl_5, Q8NI35
  pKd: 3.7
Inadl_1, Q8NI35
  pKd: below the threshold
MAGI2_3, Q86UL8
  pKd: below the threshold
LIN7A, O14910
  pKd: 3.51
MAGI2_6, Q86UL8
  pKd: 3.81
MAGI2_2, Q86UL8
  pKd: 4.74
GORASP2, Q9H8Y8
  pKd: 4.05
PDZRN4_1, Q6ZMN7
  pKd: 3.67
ARHGEF11, O15085
  pKd: 4.44
Inadl_9, Q8NI35
  pKd: below the threshold
Inadl_10, Q8NI35
  pKd: below the threshold
MPDZ_12, O75970
  pKd: below the threshold
DLG2_3, Q15700
  pKd: 4.05
DLG3_2, Q92796
  pKd: 4.74
MAST2, Q6P0Q8
  pKd: 5.1

## TSSMRGMDAV [RSRC2, Q7L4I2]
GIPC2, Q8TF65
  pKd: below the threshold
FRMPD1, Q5SYB0
  pKd: below the threshold
LNX1_1, Q8TBB1
  pKd: below the threshold
NHERF4_4, Q86UT5
  pKd: 3.82
NHERF2_2, Q15599
  pKd: below the threshold
TX1BP3, O14907
  pKd: below the threshold
DLG5_1, Q8TDM6
  pKd: below the threshold
PTPN3, P26045
  pKd: 3.67
PCLO, Q9Y6V0
  pKd: below the threshold
DLG1_1, Q12959
  pKd: below the threshold
SHANK1, Q9Y566
  pKd: below the threshold
PTPN13_1, Q12923
  pKd: below the threshold
GRID2IP_1, A4D2P6
  pKd: below the threshold
GRASP, Q7Z6J2
  pKd: below the threshold
Inadl_5, Q8NI35
  pKd: below the threshold
Inadl_1, Q8NI35
  pKd: below the threshold
MAGI2_3, Q86UL8
  pKd: below the threshold
LIN7A, O14910
  pKd: below the threshold
MAGI2_6, Q86UL8
  pKd: below the threshold
MAGI2_2, Q86UL8
  pKd: 4.02
GORASP2, Q9H8Y8
  pKd: below the threshold
PDZRN4_1, Q6ZMN7
  pKd: below the threshold
ARHGEF11, O15085
  pKd: below the threshold
Inadl_9, Q8NI35
  pKd: below the threshold
Inadl_10, Q8NI35
  pKd: below the threshold
MPDZ_12, O75970
  pKd: below the threshold
DLG2_3, Q15700
  pKd: below the threshold
DLG3_2, Q92796
  pKd: below the threshold
MAST2, Q6P0Q8
  pKd: below the threshold

## TLPRKRMSSI [GPRC6A, Q5T6X5]
GIPC2, Q8TF65
  pKd: below the threshold
FRMPD1, Q5SYB0
  pKd: below the threshold
LNX1_1, Q8TBB1
  pKd: 3.78
NHERF4_4, Q86UT5
  pKd: 3.88
NHERF2_2, Q15599
  pKd: below the threshold
TX1BP3, O14907
  pKd: below the threshold
DLG5_1, Q8TDM6
  pKd: below the threshold
PTPN3, P26045
  pKd: 4.11
PCLO, Q9Y6V0
  pKd: below the threshold
DLG1_1, Q12959
  pKd: below the threshold
SHANK1, Q9Y566
  pKd: below the threshold
PTPN13_1, Q12923
  pKd: below the threshold
GRID2IP_1, A4D2P6
  pKd: below the threshold
GRASP, Q7Z6J2
  pKd: below the threshold
Inadl_5, Q8NI35
  pKd: below the threshold
Inadl_1, Q8NI35
  pKd: below the threshold
MAGI2_3, Q86UL8
  pKd: below the threshold
LIN7A, O14910
  pKd: below the threshold
MAGI2_6, Q86UL8
  pKd: below the threshold
MAGI2_2, Q86UL8
  pKd: 3.82
GORASP2, Q9H8Y8
  pKd: below the threshold
PDZRN4_1, Q6ZMN7
  pKd: below the threshold
ARHGEF11, O15085
  pKd: below the threshold
Inadl_9, Q8NI35
  pKd: below the threshold
Inadl_10, Q8NI35
  pKd: below the threshold
MPDZ_12, O75970
  pKd: below the threshold
DLG2_3, Q15700
  pKd: 3.84
DLG3_2, Q92796
  pKd: 4.23
MAST2, Q6P0Q8
  pKd: 4.82
